Measured values taken from article PMC9942873 (Immunity, 2023).

B1: RUPA-58 (hIgG1) (antibody, V domains shown)
VH: QVQLVQSGPEAKKPGASVKVSCQASGYPFSGYYMHWLRQAPGQGLEWMGWMNPNSGGTKYAQRFQGRVTMTRDTSISTAHMELRGLRSDDTAVYYCARDYCTGSSCYRTDYDYWGQGTLVTVSS
VL: DIQMTQSPSSLSASVGDRVTITCRASQIISTYLNWYQHKPGKAPKLLIKSASTLQSGVPSRFSGSGSGTDFTLTITSLQPEDFATFYCQQSYRDPITFGQGTRLEIK
notes: IgG1; source: 293T cells, purified (Protein A), or produced as recombinant human IgG1 (GenScript)
B2: RUPA-160 (hIgG1) (antibody, V domains shown)
VH: QVQLVQSGAEVKKPGASVKASCKASGYTFDNFDIIWARQATGQGLEWMGWMNPNTGKKGYAQNLKDRVTMTRDSSISTAYLELSSLRSEDTAVYYCVRAVGSYYGSGGWFDPWGQGTLVTVSS
VL: QSVLTQPPSASGTPGQRVTIACSGSSSNIGGNNVKWYQQLPGTAPKLVIYNNDERPPGVPDRVSGSKSGTSASLAISGVQSEDEADYYCATWDDSMKREVFGGGTKLTVL
notes: as for B1
B3: RUPA-154 (hIgG1) (antibody, V domains shown)
VH: QVQLVQSGAEVRKPGASVKVSCRTSGYTFTDYYMHWVRQAPGEGLEWMGSINPKSGGTSYAERFQGRVTMTMETSVSTAYLDLSSLRSDDTAVYYCARLLYSRAVYYYGMDVWGQGTTVTVSS
VL: SYELTQPPSVSVAPGKTARITCGGKDLGSKSVHWYQQKPGQAPVLVIYYDNIRPSGIPERFSGSNSGNTATLTISRVEAGDEADYYCQVWDSSSDHYVFGRGAKVTVL
notes: as for B1
B4: RUPA-25 (hIgG1) (antibody, V domains shown)
VH: QVQLVQSGAEVKKPGASVKVSCTASGYNFLTHDISWVRQATGQGLEWMGWMNPNTGKKGYVQKFQGRVTMDRDMSKSTAYMELRSLTSEDTAVYYCVRGVGSYYGSGGWFDPWGQGTLVTVSS
VL: QPVLTQPPSASETPGQKVTISCSGSSSNIGSDTVSWYVQLPGTAPKLLIYNDNQRPSGVPDRFSGSKSGTSASLAISGLQSEDEADYYCATWDASLKRRVFGGGTTLTVL
notes: as for B1

What was measured:
Assay in all cases: ELISA
Details in all cases: both partners purified
Pfs48/45 D1-2 (N28-K289) = Pfs48/45 D1-2 (N28-K289) (Plasmodium falciparum 3D7, UniProt Q8I6T1)
[1] = biological target: Pfs48/45 D2-3 (H184-A428) (Plasmodium falciparum 3D7, UniProt Q8I6T1)
Pfs48/45 D3 (K287-A428) = Pfs48/45 D3 (K287-A428) (Plasmodium falciparum 3D7, UniProt Q8I6T1)
Sequence of Pfs48/45 D3 (K287-A428) (Q8I6T1 whole entry, looked up): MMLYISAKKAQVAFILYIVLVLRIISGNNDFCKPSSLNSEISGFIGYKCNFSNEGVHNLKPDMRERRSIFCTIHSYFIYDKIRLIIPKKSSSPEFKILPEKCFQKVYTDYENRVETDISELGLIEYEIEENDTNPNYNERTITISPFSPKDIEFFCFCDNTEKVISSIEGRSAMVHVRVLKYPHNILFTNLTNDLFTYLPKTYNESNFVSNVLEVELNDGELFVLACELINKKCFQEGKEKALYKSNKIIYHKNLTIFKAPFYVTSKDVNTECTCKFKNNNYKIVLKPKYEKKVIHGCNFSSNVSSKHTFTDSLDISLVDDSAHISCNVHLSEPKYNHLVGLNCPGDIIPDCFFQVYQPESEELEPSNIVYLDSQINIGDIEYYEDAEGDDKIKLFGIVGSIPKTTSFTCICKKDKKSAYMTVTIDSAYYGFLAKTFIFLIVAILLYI

Sequence of Pfs48/45 D1-2 (N28-K289) (Q8I6T1 whole entry, looked up): as above
Sequence of Pfs48/45 D2-3 (H184-A428) (Q8I6T1 whole entry, looked up): as above

Binder	binding result (Pfs48/45 D1-2 (N28-K289))	binding result [1]	binding result (Pfs48/45 D3 (K287-A428))
B1	binds	–	–
B2	binds	binds	–
B3	binds	binds	binds
B4	binds	binds	–
